Here are results for 17 molecules from article PMC9381698, “Generation of synthetic antibody fragments with optimal complementarity determining region lengths for Notch-1 recognition” (Frontiers in Microbiology, 2022).

B1: Fab N1/F/3 (purified soluble Fab) (Fab, V domains shown)
VH: EVQLVESGGGLVQPGGSLRLSCAASGFNLYSYYIHWVRQAPGKGLEWVASISSYYGYTSYADSVKGRFTISADTSKNTAYLQMNSLRAEDTAVYYCARYWHGALDYWGQGTLVTVSS
VL: DIQMTQSPSSLSASVGDRVTITCRASQSVSSAVAWYQQKPGKAPKLLIYSASSLYSGVPSRFSGSRSGTDFTLTISSLQPEDFATYYCQQGYFTYLFTFGQGTKVEIK
notes: light chain on the modified trastuzumab framework of Library-F (Persson et al., 2013); CDRs L1 and L2 fixed; Fab heavy chain on the modified trastuzumab framework of Library-F; short CDRH3; The Fab is detected by an anti-HIS antibody; source: E. coli BL21, purified (Protein-L resin)
B2: Fab N1/F/R3 (purified soluble Fab) (Fab, V domains shown)
VH: EVQLVESGGGLVQPGGSLRLSCAASGFNIYSSYMHWVRQAPGKGLEWVASIYPYYGYTSYADSVKGRFTISADTSKNTAYLQMNSLRAEDTAVYYCARYFSYGPFYYGSGLDYWGQGTLVTVSS
VL: DIQMTQSPSSLSASVGDRVTITCRASQSVSSAVAWYQQKPGKAPKLLIYSASSLYSGVPSRFSGSRSGTDFTLTISSLQPEDFATYYCQQGFSLITFGQGTKVEIK
notes: light chain on the modified trastuzumab framework of Library-F (Persson et al., 2013); CDRs L1 and L2 fixed; clone reconstructed from NGS information; Fab heavy chain on the modified trastuzumab framework of Library-F; medium CDRH3 length; The Fab is detected by an anti-HIS antibody; source: E. coli BL21, purified (Protein-L resin)
B3: Fab N1/F/R1 (purified soluble Fab) (Fab, V domains shown)
VH: EVQLVESGGGLVQPGGSLRLSCAASGFNIYSSYIHWVRQAPGKGLEWVASIYPYYGSTYYADSVKGRFTISADTSKNTAYLQMNSLRAEDTAVYYCARYAHFSVYGAMDYWGQGTLVTVSS
VL: DIQMTQSPSSLSASVGDRVTITCRASQSVSSAVAWYQQKPGKAPKLLIYSASSLYSGVPSRFSGSRSGTDFTLTISSLQPEDFATYYCQQWYGGYALFTFGQGTKVEIK
notes: as for B2
B4: phage-displayed Fab N1/ModF/1 (Fab, V domains shown)
VH: EVQLVESGGGLVQPGGSLRLSCAASGFNLYSSYMHWVRQAPGKGLEWVAYISPSYSYTYYADSVKGRFTISADTSKNTAYLQMNSLRAEDTAVYYCARWGHSPSGVGWYGALDYWGQGTLVTVSS
VL: DIQMTQSPSSLSASVGDRVTITCRASQSVSSAVAWYQQKPGKAPKLLIYSASSLYSGVPSRFSGSRSGTDFTLTISSLQPEDFATYYCQQPSSHSAALITFGQGTKVEIK
notes: light chain on the modified trastuzumab framework of the Modified-F library (template: anti-MBP Fab phagemid of Library-F, Persson et al., 2013); CDRs L1 and L2 fixed; Fab heavy chain on the modified trastuzumab framework of the Modified-F library; The Modified-F library uses an M13 system that allows bivalent Fab display
B5: phage-displayed Fab N1/F/R2 (Fab, V domains shown)
VH: EVQLVESGGGLVQPGGSLRLSCAASGFNFSSSSIHWVRQAPGKGLEWVASIYSYYGYTYYADSVKGRFTISADTSKNTAYLQMNSLRAEDTAVYYCARSWWGGSWYAALDYWGQGTLVTVSS
VL: B2 VL with G91W, F92W
notes: as the light chain of m15; as the heavy chain of m15; Reconstructed by Kunkel mutagenesis in the MBP phagemid
B6: phage-displayed Fab N1/F/R3 (Fab, V domains shown)
VH: B2 VH
VL: B2 VL
notes: as the light chain of m16; as the heavy chain of m16; Reconstructed by Kunkel mutagenesis in the MBP phagemid
B7: Fab N1/ModF/2 (purified soluble Fab) (Fab, V domains shown)
VH: EVQLVESGGGLVQPGGSLRLSCAASGFNLYSSYIHWVRQAPGKGLEWVAYISPYSGSTYYADSVKGRFTISADTSKNTAYLQMNSLRAEDTAVYYCARYGYAYHPYHSGYWYGALDYWGQGTLVTVSS
VL: B4 VL with P91V, S93A, H94G, S95Y, A96G, A97P, L98P
notes: light chain on the modified trastuzumab framework of the Modified-F library (template: anti-MBP Fab phagemid of Library-F, Persson et al., 2013); CDRs L1 and L2 fixed; Fab heavy chain on the modified trastuzumab framework of the Modified-F library; long CDRH3; The Fab is detected by an anti-HIS antibody; source: E. coli BL21, purified (Protein-L resin)
B8: Fab N1/ModF/5 (purified soluble Fab) (Fab, V domains shown)
VH: EVQLVESGGGLVQPGGSLRLSCAASGFNISSSYMHWVRQAPGKGLEWVASIYSYSGSTYYADSVKGRFTISADTSKNTAYLQMNSLRAEDTAVYYCARSGYSGVSGSVYSYWPFYGLDYWGQGTLVTVSS
VL: B4 VL with P91G, S92P, S93Y, S95G, A96Y, A97S
notes: as for B7
B9: Fab N1/F/2 (purified soluble Fab) (Fab, V domains shown)
VH: EVQLVESGGGLVQPGGSLRLSCAASGFNLSSYSIHWVRQAPGKGLEWVASISSSYGYTYYADSVKGRFTISADTSKNTAYLQMNSLRAEDTAVYYCARGYYAFDYWGQGTLVTVSS
VL: B1 VL with G91W, Y92W, F93S, T94F, Y95P, F97I
notes: as for B1
B10: Fab N1/F/1 (purified soluble Fab) (Fab, V domains shown)
VH: EVQLVESGGGLVQPGGSLRLSCAASGFNISSYSMHWVRQAPGKGLEWVAYISSSYGSTYYADSVKGRFTISADTSKNTAYLQMNSLRAEDTAVYYCARSWALDYWGQGTLVTVSS
VL: B2 VL with G91Y, F92W, S93G, L94P
notes: as for B1
B11: Fab N1/ModF/2 (Fab, V domains shown)
VH: B7 VH
VL: B4 VL with P91V, S93A, H94G, S95Y, A96G, A97P, L98P
notes: Modified-F library Fab on a modified trastuzumab framework; Modified-F library Fab on a modified trastuzumab framework, CDRs L1 and L2 fixed; The Fab has a His tag (detected with anti-HIS antibody and biosensors); Template phagemid derived from the anti-MBP Fab of Library-F (Persson et al., 2013); source: E. coli BL21, purified (Protein-L resin)
B12: Fab N1/ModF/5 (Fab, V domains shown)
VH: B8 VH
VL: B4 VL with P91G, S92P, S93Y, S95G, A96Y, A97S
notes: as for B11
B13: Fab N1/F/2 (Fab, V domains shown)
VH: B9 VH
VL: B1 VL with G91W, Y92W, F93S, T94F, Y95P, F97I
notes: Library-F Fab on a modified trastuzumab framework; Library-F Fab on a modified trastuzumab framework, CDRs L1 and L2 fixed; The Fab has a His tag (detected with anti-HIS antibody and biosensors); Library-F framework: Persson et al., 2013; source: E. coli BL21, purified (Protein-L resin)
B14: Fab N1/F/3 (Fab, V domains shown)
VH: B1 VH
VL: B1 VL
notes: as for B13
B15: Fab N1/F/R3 (Fab, V domains shown)
VH: B2 VH
VL: B2 VL
notes: Library-F rare Fab reconstructed from NGS information, modified trastuzumab framework; Library-F rare Fab reconstructed from NGS information, modified trastuzumab framework, CDRs L1 and L2 fixed; The Fab has a His tag (detected with anti-HIS antibody and biosensors); Library-F framework: Persson et al., 2013; source: E. coli BL21, purified (Protein-L resin)
B16: Fab N1/F/1 (Fab, V domains shown)
VH: B10 VH
VL: B2 VL with G91Y, F92W, S93G, L94P
notes: as for B13
B17: Fab N1/F/R1 (Fab, V domains shown)
VH: B3 VH
VL: B3 VL
notes: as for B15

Substitutions are numbered along the chain they refer to.

In the first assay the target is T1, Jagged-2 receptor ectodomain (Homo sapiens (assumed), UniProt Q9Y219).
T1 construct: Jagged-2 ectodomain; it may be an Fc fusion like the Notch proteins; also called J2
T1 sequence (Q9Y219 27-1080): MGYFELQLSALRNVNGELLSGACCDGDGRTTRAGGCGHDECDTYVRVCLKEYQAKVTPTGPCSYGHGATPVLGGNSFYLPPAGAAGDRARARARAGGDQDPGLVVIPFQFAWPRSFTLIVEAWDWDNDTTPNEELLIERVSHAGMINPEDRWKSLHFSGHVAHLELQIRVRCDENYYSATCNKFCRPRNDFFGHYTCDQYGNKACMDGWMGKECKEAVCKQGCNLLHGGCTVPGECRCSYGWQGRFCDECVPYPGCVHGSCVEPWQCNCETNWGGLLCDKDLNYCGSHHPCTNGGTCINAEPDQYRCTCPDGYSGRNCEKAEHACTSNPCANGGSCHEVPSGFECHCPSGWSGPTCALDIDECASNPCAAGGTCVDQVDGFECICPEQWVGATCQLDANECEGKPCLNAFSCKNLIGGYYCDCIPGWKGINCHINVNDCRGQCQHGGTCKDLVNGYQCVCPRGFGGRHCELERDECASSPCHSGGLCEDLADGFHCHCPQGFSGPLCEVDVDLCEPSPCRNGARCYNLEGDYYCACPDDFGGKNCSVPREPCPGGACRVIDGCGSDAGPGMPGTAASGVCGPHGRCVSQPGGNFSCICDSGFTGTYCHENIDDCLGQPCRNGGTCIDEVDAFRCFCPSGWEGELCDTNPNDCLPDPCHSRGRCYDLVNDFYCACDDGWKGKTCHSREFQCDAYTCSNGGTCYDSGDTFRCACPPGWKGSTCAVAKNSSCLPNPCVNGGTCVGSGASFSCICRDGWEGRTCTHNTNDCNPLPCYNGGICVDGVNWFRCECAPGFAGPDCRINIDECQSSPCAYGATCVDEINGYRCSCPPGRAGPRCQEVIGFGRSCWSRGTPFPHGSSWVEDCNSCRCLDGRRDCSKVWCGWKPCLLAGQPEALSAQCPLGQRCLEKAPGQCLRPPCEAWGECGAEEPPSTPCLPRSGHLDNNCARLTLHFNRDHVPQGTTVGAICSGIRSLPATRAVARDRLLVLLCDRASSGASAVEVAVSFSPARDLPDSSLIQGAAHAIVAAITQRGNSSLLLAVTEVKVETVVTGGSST
In words: ELISA; single-point Fab-ELISA for specificity: proteins immobilised at 5 ug/ml on MaxiSorp plates; purified Fab at 1 uM; detected with HRP-conjugated anti-HIS antibody, Abs450. Particulars: both partners purified. On the technique in general: ELISA stands for enzyme-linked immunosorbent assay.
With B1, the binding result is on record as “binds”.
Take B2: the binding result is given as “binds”.
For B3, the binding result is listed as “binds”.

A further assay concerns the target T2, recombinant Fc-tag-fused human Notch-1 extracellular domain (Homo sapiens, UniProt P46531).
T2 construct: Notch-1, human, extracellular domain; No catalogue number and no residue limits are printed; also called N1; source: bought: R&D Systems
In words: ELISA; phage-ELISA: Notch-1 and control proteins immobilised at 5 ug/ml on MaxiSorp plates; phage-displayed Fab at 10^12 PFU/ml in PBT for 30 min; detected with HRP-conjugated anti-M13 antibody, Abs450. Particulars: one partner purified.
T2 sequence (P46531 19-1735): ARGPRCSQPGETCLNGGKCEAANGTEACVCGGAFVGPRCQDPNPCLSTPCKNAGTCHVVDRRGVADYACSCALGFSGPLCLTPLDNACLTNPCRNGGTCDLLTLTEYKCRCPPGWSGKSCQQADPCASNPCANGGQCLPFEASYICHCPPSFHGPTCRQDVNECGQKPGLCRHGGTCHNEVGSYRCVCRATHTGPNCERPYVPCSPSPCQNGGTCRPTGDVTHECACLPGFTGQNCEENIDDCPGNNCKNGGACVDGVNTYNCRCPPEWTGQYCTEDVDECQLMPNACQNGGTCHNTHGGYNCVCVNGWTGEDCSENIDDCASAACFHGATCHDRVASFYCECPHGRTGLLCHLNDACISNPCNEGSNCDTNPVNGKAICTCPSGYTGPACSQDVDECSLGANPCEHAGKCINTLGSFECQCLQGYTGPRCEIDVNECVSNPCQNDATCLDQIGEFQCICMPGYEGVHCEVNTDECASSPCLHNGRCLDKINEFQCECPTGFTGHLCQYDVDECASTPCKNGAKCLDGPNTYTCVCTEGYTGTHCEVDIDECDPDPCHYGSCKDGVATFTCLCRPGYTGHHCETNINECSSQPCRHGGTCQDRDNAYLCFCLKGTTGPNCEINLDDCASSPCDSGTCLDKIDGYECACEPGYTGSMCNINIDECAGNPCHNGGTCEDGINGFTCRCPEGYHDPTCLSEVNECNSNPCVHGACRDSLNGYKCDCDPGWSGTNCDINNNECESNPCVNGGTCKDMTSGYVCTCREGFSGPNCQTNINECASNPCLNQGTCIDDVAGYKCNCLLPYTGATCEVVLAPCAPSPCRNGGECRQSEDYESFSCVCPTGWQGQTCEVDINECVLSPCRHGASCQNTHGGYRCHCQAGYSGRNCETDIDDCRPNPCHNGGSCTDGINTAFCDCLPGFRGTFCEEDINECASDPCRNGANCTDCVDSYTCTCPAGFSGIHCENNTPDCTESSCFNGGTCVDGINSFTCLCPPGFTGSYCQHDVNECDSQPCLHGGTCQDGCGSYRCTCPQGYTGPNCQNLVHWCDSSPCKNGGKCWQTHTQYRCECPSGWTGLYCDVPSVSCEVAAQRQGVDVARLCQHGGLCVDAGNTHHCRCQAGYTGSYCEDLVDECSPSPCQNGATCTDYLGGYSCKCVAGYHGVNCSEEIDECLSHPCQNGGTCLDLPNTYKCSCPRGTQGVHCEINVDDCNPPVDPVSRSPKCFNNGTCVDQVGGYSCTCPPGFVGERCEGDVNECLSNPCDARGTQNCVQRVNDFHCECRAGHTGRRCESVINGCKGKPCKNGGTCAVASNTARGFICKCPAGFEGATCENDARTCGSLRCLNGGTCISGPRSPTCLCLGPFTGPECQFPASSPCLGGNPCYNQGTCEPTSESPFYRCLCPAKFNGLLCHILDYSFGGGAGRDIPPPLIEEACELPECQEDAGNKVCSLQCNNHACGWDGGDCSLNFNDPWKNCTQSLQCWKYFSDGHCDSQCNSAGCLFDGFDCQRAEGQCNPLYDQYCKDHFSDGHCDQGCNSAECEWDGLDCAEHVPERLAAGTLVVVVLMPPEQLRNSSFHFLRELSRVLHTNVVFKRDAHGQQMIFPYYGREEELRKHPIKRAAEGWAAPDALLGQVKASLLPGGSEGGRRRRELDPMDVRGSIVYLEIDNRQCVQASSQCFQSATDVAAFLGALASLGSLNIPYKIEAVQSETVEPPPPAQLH
Turning to B4, the binding result is “binds”.
Take B5: the “fold weaker phage-ELISA signal than the high-frequency Fabs” value is around 4 fold.
Same read-out and setting: with B6 the figure was around 10 fold.

Another assay addresses T2, recombinant Fc-tag-fused human Notch-1 …. The assay is described as follows: ELISA; multi-point Fab-ELISA: target immobilised at 5 ug/ml on MaxiSorp plates; purified Fab 0.01 nM-1 uM in PT for 30 min; detected with HRP-conjugated anti-HIS antibody; EC50 from a one-site specific-binding fit. Particulars: both partners purified.
As usually defined, the EC50 is the concentration at which the effect is half-maximal. With B7, the EC50 is 1.7 nM.
On the same count and under the same terms, with B8 the figure was 2.4 nM.
Regarding B9, the EC50 was around 4 nM.
Same read-out and setting: to B1 belongs around 4 nM; to B10, around 4 nM; to B2, 37 nM.
In the case of B3, the EC50 is around 4 nM.

The target in the next assay is T3, recombinant Fc-tag-fused human Notch-1 extracellular domain (Homo sapiens, UniProt P46531).
T3 construct: Notch-1, human, extracellular domain; the R&D Systems product may hold only part of the ectodomain (surmise); also called N1; Fc-Notch; source: bought: R&D Systems
The assay is described as follows: BLI; Fabs immobilised on amine-reactive generation-2 or anti-Fab CH1 biosensors, target proteins in solution at at least three concentrations; 25°C, PBS; global fit to a 1:1 binding model; apparent constants (Fc fusions may dimerize). Particulars: both partners purified. A general note: In BLI a coated tip is dipped into the sample, and binding shifts an interference pattern.
T3 sequence (P46531 19-1735): as above
For orientation: koff means a measure of how fast the partners let go of each other. In general, kon refers to a measure of how fast the partners come together. As for B11, the koff amounted to 1.91e-05 s⁻¹ and the kon was determined as 158000 M⁻¹ s⁻¹.
On to B12, for which the koff amounted to 8.15e-05 s⁻¹ and the kon came to 124000 M⁻¹ s⁻¹.
As for B13, the koff came out at 0.000123 s⁻¹ and the kon came to 322000 M⁻¹ s⁻¹.
For the molecule B14, the off-rate (koff) was 0.000218 s⁻¹ and the on-rate constant (kon) was determined as 122000 M⁻¹ s⁻¹.
Turning to B15, the koff was found to be 0.000484 s⁻¹ and the kon was 85300 M⁻¹ s⁻¹.
The like results for B16 were, in that order, 0.000118 s⁻¹ and 296000 M⁻¹ s⁻¹.
For the molecule B17, the koff was found to be 0.000154 s⁻¹ and the kon worked out at 76400 M⁻¹ s⁻¹.

The target in a further assay is T2, recombinant Fc-tag-fused human Notch-1 …. In words: BLI; Octet RED384; Fabs immobilised on amine-reactive generation-2 or anti-Fab CH1 biosensors, target proteins in solution at three or more concentrations; 25 C, PBS; global 1:1 fit; apparent KD (Fc-Notch proteins may dimerize, avidity). Particulars: both partners purified.
Take B7: the Kd was determined as 0.16 nM.
As to B8, the Kd worked out at 0.68 nM.
Consider B9, for which the Kd is 0.45 ± 0.05 nM.
Regarding B1, the Kd is 1.88 nM.
Still for that read-out and setting: to B10 belongs 0.45 ± 0.05 nM; to B2, 6.6 nM.
Regarding B3, the Kd is 1.98 nM.
